Experimental data published in patent US20240343803A1 (SHANDONG SIMCERE BIOPHARMACEUTICAL, published 2024).

B1: PVRIG-A60 (VHH)
VHH: QVQLVESGGGLVQSGGSLRLSCAASGRTRSMYVMGWFRQAPGKEREFVGRIKWSGDTTYTSYADFVKGRFTLYGNQARNTVYLQMNSLKPEDAAVYYCNLRRLDGVNYWGKGTLVTVSS
notes: tested as VHH-hinge-CH2-CH3 (human IgG1-Fc); not shown: human IgG1 hinge-CH2-CH3
B2: PVRIG-A35 (VHH)
VHH: EVQVVESGGGLVQSGGSLRLSCAASGRTRSMYVMGWFRQAPGKEREFVGRIKWSGDTTYTSYADFVKGRFTLYGNQARNTVYLQMNSLKPEDTAVYYCNGRSRFNVINAWGTGTLVTVAS
notes: as for B1
B3: PVRIG-A104 (VHH)
VHH: EVQVVESGGGLVQAGGSLRLSCAASGRTRSMYVMGWFRQAPGKEREFVGRIKWSGDTTYTSYADFVKGRFTLYGNQARNTVYLQMNSLKPEDTAVYYCYRRSWTNTKLYWGKGIQVTVSS
notes: as for B1
B4: PVRIG-A105-H3a (Fc fusion)
chain: EVQLVESGGGLVQPGGSLRLSCAASGRTFDRHTMTWFRQAPGKEREFVATASRIPGDTYYVDSVKGRFTISRDNAKNSVYLQMNSLRAEDTAVYYCAATSAYSSEVDSYEKGSWYDNWGQGTMVTVSS
notes: humanized variant of PVRIG-A105; also called A105.VH3a; not shown: constant part not restated for the humanized forms; parents are VHH-hinge-CH2-CH3 of human IgG1; detected by anti-human
B5: PVRIG-A15 (VHH)
VHH: QVQLVESGGGLVQAGGSLRLSCVASGRTFSANTMAWFRQAPGKEREFVAYTRWTDDNTDYASYADFVKGRFTAFRDNTRNTMYLQMNRLRPEDTAVYYCAAATTRGTYYSAGDYNSWGQGTQVTVSS
notes: as for B1
B6: PVRIG-A113 (VHH)
VHH: QLQLVESGGGLVQSGGSLRLSCAASGRTRSMYVMGWFRQAPGKEREFVGRIKWSGDTTYTSYADFVKGRFTLYGNQARNTVYLQMNSLKPEDTAVYYCAALPSDYDYRAASYGVDYWGKGTLVTVSS
notes: as for B1
B7: PVRIG-A30 (VHH)
VHH: QVQLVESGGGLVQPGGSLRLSCAASGRTDSMNVMGWFRRAPGKEREFVARIKWNGDTTYTAYADFLKGRFTLYGAVARNRVYLQMNSLQPEDTAVYYCAAGEVSGSSYSPDYGMHYWGKGTLVTVSS
notes: as for B1
B8: PVRIG-A43 (VHH)
VHH: QVQLVESGGGLVQSGGSLRLSCAASGRTRSMYVMGWFRQAPGKEREFVGRIKWSGDTTYTSYADFVKGRFTLYGNQARNTVYLQMNSLKVEDTAVYYCAGRVVPLPSRQRDRYDYWGQGTQVTVSS
notes: as for B1
B9: PVRIG-A75 (VHH)
VHH: QLQLVESGGGLVQSGGSLRLSCAASGRTRSMYVMGWFRQAPGKEREFVGRIKWSGDTTYTSYADFVKGRFTLYGNQARNTVYLQMNSLKPEDTAVYSCAASKFPVSGVPEHYDYWGQGTQVTVSS
notes: as for B1

Key:
[1] = biological target: T1, human PVRIG-mFc protein (Acro, PVG-H5253) (human, UniProt Q6DKI7 41-171, limits assumed); assay: competition FACS; blocked: human PVRIG-mFc binding to CHO-K1-CD112 cells
T1 construct: bought reagent; also called PVRIG-ECD-mFc
T1 sequence (looked up): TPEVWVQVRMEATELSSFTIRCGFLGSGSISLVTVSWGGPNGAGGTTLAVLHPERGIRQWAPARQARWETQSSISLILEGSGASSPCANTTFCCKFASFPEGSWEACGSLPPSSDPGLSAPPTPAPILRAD
Procedure: After incubation, the cells were added with staining buffer (2% FBS+PBS) to stop staining, centrifuged at 350×g to remove the supernatant, washed twice and resuspended with staining buffer to a density of 1×10⁶ cells/mL. The cells were plated into a 96-well plate (50 μL of cell suspension per well) for further use. A working solution of human PVRIG-mFc protein (Acro, PVG-H5253) prepared with staining buffer, 1 μg/mL (four-fold concentration), was added into a 96-well plate (50 μL PVRIG-mFc working solution per well). […] The diluted antibodies were added to the well containing 50 μL of PVRIG-mFc. The plate was placed on a microplate shaker at 400 rpm for 1 minute to fully mix the antibodies and PVRIG-mFc proteins, and then incubated at 4° C. for 30 minutes. After the incubation, the cell suspension prepared above (100 μL) was added into the wells, gently mixed with the pipette tip and incubated at 4° C. for 30 minutes. After the incubation, the cells were washed twice with staining buffer (200 μL per well) and centrifuged at 350×g for 5 minutes to discard the supernatant. The PE goat anti-mouse IgG Fc antibody (Biolegend, 405337) was diluted 250 times with staining buffer, added into the washed wells (100 μL per well), mixed well, and stained at 4° C. for 30 minutes. After staining, the cells were washed twice with staining buffer, finally resuspended with 200 μL staining buffer and analyzed by flow cytometry (BD, Canto II). The weaker the fluorescence signal, the stronger the ability of the antibodies blocks the binding of CHO-K1 human CD112 cells to the PVRIG-mFc protein. An antibody binding curve was drawn with concentration of antibodies as the abscissa and the corresponding Mean Fluorescence Intensity (MFI) as the ordinate. The IC50 value of the antibodies and the AUC value of the binding curve were calculated by using a Four Parameter Logistic Fit (GraphPadPrism9). The smaller the IC50 value and AUC value, the stronger the ability of the antibodies competes with CHO-K1-CD112 cells to bind to human PVRIG-mFc protein.

[2] = biological target: T2, human PVRIG-his (AcroBiosystems, Cat NO. PVG-H52H4) (human, UniProt Q6DKI7 41-171, limits assumed); assay: competition ELISA on coated human PVRIG-his; blocked ligand human PVRL2-mFc
T2 construct: treated as the same protein; also called human PVRIG-His protein; Human PVRIG-His, Acro C227P1-9ARF1-T4
T2 sequence (looked up): T1 sequence (looked up)
Procedure: (§1) The ELISA plate was pre-coated with 100 μL/well of 0.5 μg/mL human PVRIG-his protein (AcroBiosystems, Cat NO. PVG-H52H4). The tested anti-PVRIG antibodies were diluted from the highest concentration of 16 nM (two-fold concentration). The diluted antibodies were mixed with 18 ng/ml human PVRL2-mFc (AcroBiosystems, Cat NO. CD2-H5257) in equal volume, added into the plate (100 μL/well), and incubated with shaking at room temperature for 2.0 hours. […] A HRP substrate, TMB (Thermo, Cat NO. 34029) was added into wells after washing the plate again for color development. After adding a termination solution to terminate the reaction, the absorbance value was read by a microplate reader (MD i3×). An inhibiting curve was drawn with concentration of antibodies as the abscissa and the corresponding OD value as the ordinate. The IC50 value was calculated by using a Four Parameter Logistic Fit (GraphPadPrism9). The smaller the IC50 value, the stronger the ability of the antibodies inhibits the binding between PVRIG and PVRL2. The positive and negative controls are the same as in Example 8.

[3] = biological target: T3, human PVRIG-his (AcroBiosystems, Cat NO. PVG-H52H4) (human, UniProt Q6DKI7 41-171, limits assumed); assay: ELISA, antigen coated
T3 construct: also called human PVRIG protein
T3 sequence (looked up): T1 sequence (looked up)
Procedure: (§2) The ELISA plate was pre-coated with 100 μL/well of 0.5 μg/mL human PVRIG-his (AcroBiosystems, Cat NO. PVG-H52H4) or cynomolgus monkey PVRIG (Novoprotein, Cat NO. C09B). The tested anti-PVRIG humanized antibodies were serially diluted (initial concentration 3 nM, 3-fold serial dilution), added into the plate (100 μL/well) and incubated with shaking at room temperature for 1.5 hours. […] A HRP substrate, TMB (Thermo, Cat NO. 34029) was added into wells after washing the plate again for color development. After adding a termination solution to terminate the reaction, the absorbance value was read by a microplate reader (MD i3×). An antibody binding curve was drawn with concentration of antibodies as the abscissa and the corresponding OD value as the ordinate. The EC50 value was calculated by using a Four Parameter Logistic Fit (GraphPadPrism9). The smaller the EC50 value, the stronger the ability of the antibodies binds to human or cynomolgus monkey PVRIG. The binding effect of the humanized antibodies was normalized to the corresponding parental antibodies. If the percentage value is higher than 100%, the binding effect of humanized antibodies is better than that of parental antibody.

[4] = biological target: T4, cynomolgus monkey PVRIG (Novoprotein, Cat NO. C09B) (cynomolgus monkey, UniProt A0A2K5WVV8 41-171); assay: ELISA, antigen coated
T4 construct: also called cynomolgus monkey PVRIG protein
T4 sequence: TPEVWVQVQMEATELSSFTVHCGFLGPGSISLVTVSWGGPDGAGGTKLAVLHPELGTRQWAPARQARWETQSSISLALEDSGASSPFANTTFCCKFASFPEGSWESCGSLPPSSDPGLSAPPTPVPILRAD
Procedure: as §2

[5] = biological target: T3, human PVRIG-his (AcroBiosystems, Cat …); assay: competition ELISA, PVRIG-His coated, competitor human PVRL2-mFc; set-up: AUC: unit not given here
Procedure: as §1
The methods refer to Example 11. The inhibiting activity of the humanized antibodies was normalized to the corresponding parental antibodies. If the percentage value is higher than 100%, the inhibiting effect of humanized antibodies is better than that of parental antibodies.

[6] = biological target: T5, human PVRIG on FlpinCHO-PVRIG cells (human, UniProt Q6DKI7 41-326); assay: FACS, FlpinCHO-PVRIG cells
T5 construct: whole, on cells
T5 sequence (looked up): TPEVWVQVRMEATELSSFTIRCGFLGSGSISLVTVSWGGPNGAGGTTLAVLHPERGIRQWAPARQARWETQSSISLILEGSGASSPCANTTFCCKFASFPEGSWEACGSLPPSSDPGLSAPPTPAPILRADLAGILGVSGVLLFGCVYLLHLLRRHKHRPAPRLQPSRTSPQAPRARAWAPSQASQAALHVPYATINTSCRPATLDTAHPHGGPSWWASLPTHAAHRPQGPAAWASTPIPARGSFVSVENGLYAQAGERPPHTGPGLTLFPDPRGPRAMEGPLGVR
Procedure: The Ham's F12 (Gibico, 21127-022) complete medium containing 10% FBS was then added to terminate the digestion and acquire cell suspension. After counting with a cell counter (Beckman Coulter, Vi-CELL), an appropriate amount of cell suspension was centrifuged at 350×g to remove the supernatant, washed twice with PBS, stained with Zombie violet (Biolegend, 423114) and incubated at room temperature for 20 minutes. After incubation, the cells were added with staining buffer (2% FBS+PBS) to stop staining, centrifuged at 350×g to remove the supernatant, washed twice and resuspended with staining buffer to a density of 2×10⁶ cells/mL. The cells were plated into a 96-well plate (50 μL of cell suspension per well) for further use. The antibodies were diluted from the highest concentration of 46 nM (two-fold concentration) with staining buffer by 3.3-fold serial dilution. The diluted antibodies were added to the well containing 50 μL of cell suspension. The plate was placed on a microplate shaker at 400 rpm for 1 minute to fully mix the antibodies and cells, and then incubated at 4° C. for 30 minutes. After the incubation, the cells were washed twice with staining buffer (200 μL per well) and centrifuged at 350×g for 5 minutes to discard the supernatant. The PE goat anti-human IgG Fc antibody (ebioscience, 12-4998-82) was diluted 250 times with staining buffer, added into the washed wells (100 μL per well), mixed well, and stained at 4° C. for 30 minutes. After staining, the cells were washed twice with staining buffer, finally resuspended with 200 μL staining buffer and analyzed by flow cytometry (BD, Canto II). The stronger the signal, the stronger the ability of the antibodies binds to PVRIG. An antibody binding curve was drawn with concentration of antibodies as the abscissa and the corresponding Mean Fluorescence Intensity (MFI) as the ordinate. The AUC value of the curve was calculated by using a Four Parameter Logistic Fit (GraphPadPrism9). The stronger the AUC value, the stronger the ability of the antibodies binds to FlpinCHO-PVRIG and FlpinCHO-cyno PVRIG. […] The binding activity of the antibodies was normalized to the positive control COM701-hIgG1 and SRF813-hIgG1.

| Binder | IC50 (read off the curve) [1] [nM] | IC50 (read off the curve) [2] [nM] | also measured |
| --- | --- | --- | --- |
| B1 | ~1 | ~1 | – |
| B2 | ~1 | ~1 | – |
| B3 | ~1 | ~1 | – |
| B4 | – | – | % relative activity parental antibody/tested antibody [3]: 0.99%; EC50 [3]: 7.41 nM; % relative activity parental antibody/tested antibody [4]: 2.53%; EC50 [4]: 1.27 nM; % relative activity (AUC) parental antibody/test antibody [5]: 47.2%; AUC [5]: 5.37; AUC % to COM701-hIgG1 [6]: 15.9%; AUC % to SRF813-hIgG1 [6]: 23.9%; AUC % to parental Ab [6]: 12.8% |
| B5 | ~1 | ~2 | – |
| B6 | ~1 | ~1 | – |
| B7 | ~1 | ~2 | – |
| B8 | ~1 | ~1 | – |
| B9 | ~0.8 | ~1 | – |
